For one molecule, koff results are on record in patent US20110250170A1 (PHILOGEN S P A, published 2011).

This test deals with T1, A1 domain of tenascin-C (TNC-A1) (UniProt P24821 1073-1163, limits assumed).
T1 construct: domain: A1; Coupled to Sepharose resin in the immunoreactivity test; also called extra-domain A1 of tenascin-C
T1 sequence (looked up): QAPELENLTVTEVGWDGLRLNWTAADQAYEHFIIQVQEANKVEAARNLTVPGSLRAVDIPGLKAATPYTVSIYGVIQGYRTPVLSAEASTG
Put plainly: real-time interaction analysis, BIAcore 3000. On the technique in general: SPR reads the build-up and loss of mass on a sensor chip optically.

B1: F16 human monoclonal antibody (original clone 4A1-F16) (antibody, V domains shown)
VH: EVQLLESGGGLVQPGGSLRLSCAASGFTFSRYGASWVRQAPGKGLEWVSAISGSGGSTYYADSVKGRFTISRDNSKNTLYLQMNSLRAEDTAVYYCAKAHNAFDYWGQGTLVTVSR
VL: SSELTQDPAVSVALGQTVRITCQGDSLRSYYASWYQQKPGQAPVLVIYGKNNRPSGIPDRFSGSSSGNTASLTITGAQAEDEADYYCNSSVYTMPPVVFGGGTKLTVL
Take B1: the koff (commonly the rate constant with which the complex falls apart) is less than 0.01 s⁻¹.
